In assay [1] the test system is MDA-MB-231 breast cancer cells. Put plainly: Western blot analysis of MDA-MB-231 breast cancer cells treated with 3D1. Type of assay: cell-based, human. To be noted: 72 hrs. As for the experimental part:
(§1) To determine the level of Nodal expression in brain, kidney, liver, pancreas, heart and skeletal muscle ready to use adult tissue extracts for Western blotting (WB) were purchased from Santa Cruz Biotechnology. For WB experiments of cell lines, whole cell lysates were prepared and quantified. SDS-PAGE gel electrophoresis and WB were performed using standard techniques. PVDF membranes were blocked in 5% non-fat milk or 5% BSA and antibodies diluted in either 5% non-fat milk or 5% bovine serum albumin overnight at 4° C., depending on the manufacturer's recommendations. Signal was detected using West Pico chemiluminescence reagent (Thermo Fisher) and exposure to x-ray film.
In general terms: In western blotting, separated proteins are transferred to a membrane and probed.

Assay [2] concerns C8161 melanoma cells. The experiment in a line: Western blot analysis of C8161 melanoma cells treated with anti-Nodal antibody. Type of assay: cell-based, human. To be noted: for phosphorylation of Smad2 and MAPK (ERK1/2): 1 hr to 72 hr. As for the experimental part:
Experiments were conducted in order to assess and characterize the ability of the 3D1 antibody to inhibit Nodal activity. 3D1 reduced Nodal expression, clonogenicity, and vasculogenic mimicry in metastatic melanoma cells (See FIG. 24). C8161 melanoma cells treated with an IgG-Control (negative control) or 4 μg/ml of either Santa Cruz (SC) (used as positive control) or 3D1 function blocking anti-Nodal antibodies for 72 hours.
Additional studies were performed in order to determine if 3D1 antibody could alter phosphorylation of Smad2 or MAPK. […] Western blot analysis of C8161 melanoma cells treated with 3D1 (4 μg/ml) vs. untreated control for 1 hr, 2 hr, 4 hr, 6 hr or 72 hr (See FIG. 25).
as §1

For assay [3], the target named is T1, endogenous Nodal protein (Homo sapiens, UniProt Q96S42).
T1 construct: recognize the endogenous forms of Nodal protein in human melanoma cells; endogenous in cells; host or cells: human melanoma lines PES, A-375, SK-MEL, WM 266, LCM (blot)
T1 sequence (Q96S42 238-347): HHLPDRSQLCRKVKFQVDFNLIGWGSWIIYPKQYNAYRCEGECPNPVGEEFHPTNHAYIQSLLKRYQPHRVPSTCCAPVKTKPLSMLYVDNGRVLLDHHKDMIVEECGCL
The experiment in a line: Western blot detection of endogenous Nodal in human melanoma cell lysates with 3D1. As to conditions: 3D1 at 2 μg/mL; panel of human melanoma cell lines and HEK-293. It is filed as binding. As for the experimental part:
Western blot analyses for the detection of endogenous Nodal protein were performed using the following human skin malignant melanoma cell lines: PES, A-375, SK-MEL, WM 266 and LCM. HEK-293 (human embryonic kidney) cells and 100 ng of rhNodal protein were used as positive controls. Cells were lysed performing three freeze/thaw cycles in 50 mM Tris-HCl pH 7.5, 500 mM NaCl, 1% NP-40, 10 mM EDTA, 1 mM MgCl2, 1 mM CaCl2, 10% Glycerol, with an added cocktail of protease inhibitors and PMSF (phenyl-methanesulfonylfluoride). Cell lysates were cleared by centrifugation at 12,000 rpm for 20 min at 4° C. and the supernatants were quantified by Bradford assay. 50 μg of cell lysate from each sample were applied to a 15% SDS-PAGE gel under reducing conditions and electrophoresed for 3 h at 80 V. Separated proteins were transferred onto a polyvinylidene difluoride (PVDF) membrane (Millipore), previously soaked in methanol 100% for 5 min. […] The target protein was detected using the enhanced chemi-luminescent substrate method with the SuperSignal West Pico kit provided by Pierce Chemical Co. following the manufacturer's instructions. Signals were acquired with the ChemiDoc XRS video densitometer using the Quantity One software.

In assay [4] the test system is C8161 cells. The experiment in a line: Vasculogenic mimicry / vasculogenic network formation assay in 3D culture. Type of assay: cell-based, human. To be noted: 24 hours, vs IgG control. As for the experimental part:
Untreated cells, or cells treated with either IgG Control or 3D1 anti-Nodal antibody for 72 hours were cultured in soft agar for three weeks (soft agar clonogenic assay). […] C8161 cells were treated with either 4 μg/ml of either Santa Cruz (SC), or 3D1 function blocking anti-Nodal antibodies, or IgG Control and cultured in three dimensional cultures for 24 hours to measure their ability to engage in vasculogenic mimicry (VM).
Three-dimensional matrices were prepared by spreading 75 μl of ice-cold Matrigel (average 12-15 mg/ml; Corning, Bedford, Mass.) into 12-well culture dishes and polymerized for one hour at 37° C. C8161 human melanoma cells (1×10^5 cells/well) were then plated onto the prepared Matrigel matrices in the presence of either 4 μg/ml mouse IgG control or 3D1 mAb (2.8 μg/ml). No additional antibody was added. Tubular network formation was then observed after 24 hr and images captured digitally using a Zeiss model 25 inverted microscope (Carl Zeiss, Inc, Thornwood, N.Y.) and Hitachi HV-C20 CCD camera (Hitachi Denshi Ltd., Woodbury, N.Y.). Mean values were calculated from images of at least four different fields of both the IgG control and 3D1 mAb treated cultures, and then analyzed using the AngioSys software package (TCS CellWorks, Ltd., Buckingham, UK) with the mean number (±SEM) of junctions and tubules calculated from the analyzed fields.

“Also recorded” adds a separate entry of the source.

B1: 3D1: mouse monoclonal anti-Nodal antibody raised against hNodal(44-67); light chain SEQ ID NO:1, heavy chains SEQ ID NO:2 and 3 (protein)
light: DIKMTQSPASLSASVGETVTITCRASGNIHNYLAWYQQKQGKSPQLLVYNAKTLADGVPSRFSGSGSGTQYSLKINSLQPEDFGSYYCQHFWSTPHVRCWDQAGTETEAW
heavy 1: VKLVESGGGLVKPGGSLKLSCAASGFTFSSYAMSWVRQTPEKRLEWVASISSGGCTYYPDSVKGRFTISRDNARNILYLQMSSLRSEDTAMYYCARGSMITADGNSLLLCYGLLGSRNLXHR
heavy 2: VKLVESGGGLVQPGGSMKLSCVASGFTFRNYWMSWVRQSPEKGLEWVAEIRLKSDNYAARYAESVKGKFTISRDDSKSRLYLQMNSLRAEDTGIYYCTGIRRFAYWGQGTL
modifications: not fully specified; (120)..(120) Xaa can be any naturally occurring amino acid
In the case of B1, the “Nodal expression and P-H3 by WB” value in assay [1] is on record as “noteworthy reduction”. In assay [1] (4 μg/ml, vs IgG control), the “reduction in Nodal” value was 45% and the “reduction in the level of the proliferation/mitosis marker P-H3” value is listed as 49%. In assay [2] (4 μg/ml, 72 hours, Western blot vs IgG control), the “inhibition of Nodal protein expression” value is 50%. Besides, the “phosphorylation of Smad2 and MAPK (ERK1/2)” value in assay [2] (4 μg/ml) was “reduced phosphorylation of Smad2 and MAPK”. The “phosphorylation of Smad2 and MAPK (ERK1/2)” value in assay [2] (4 μg/ml, listed as 3D1 mAb) is listed as “reduction in phosphorylation; also recorded: reduced”. In assay [2] (72 hr), the p27 level entry is “increases” and the “phospho-Histone H3 (P-H3) level” value is listed as “increases”. In addition, in assay [2] (72 hr, 4 μg/ml, vs IgG control, listed as 3D1 mAb), the Nodal expression entry is reported as “reduction in Nodal expression”. In addition, in assay [2] (72 hr, listed as 3D1 mAb), the “Cyclin B1 level” value was “reduced; also recorded: reduction”, the p27 level entry was “increase” and the “phospho-Histone H3 (P-H3) level” value is “reduction”. Moreover, in assay [3], the “staining of endogenous Nodal forms in Western blot” value is “able to stain the immature form pro-Nodal”. Besides, the “formation of vasculogenic mimicry networks (junctions and tubules)” value in assay [4] was “did not complete the formation of networks”. In addition, the “formation of vasculogenic mimicry networks (junctions and tubules)” value in assay [4] (listed as 3D1 mAb) is “unable to form complete networks characteristic of VM; also recorded: significant reduction in the ability to form junctions and tubules”.

(Values after patent US10508147B2, “Anti-nodal antibodies and methods of using same” (ANN AND ROBERT H. LURIE CHILDREN'S HOSPITAL OF CHICAGO, priority 2014, dated 2019).)
